Source: patent publication US20210285949A1

Biological target: human recombinant adrenomedullin receptor (CRLR+RAMP3) (human)

## antagonist (human ADM 22-52) (from UniProt P35318) (peptide)
  IC50 (read off the curve); cAMP HTRF assay, agonist 5.63 nM hADM: 200 nM
